Measurements as given in patent publication US20220064312A1.

biological target: human CCR8 (human) (UniProt P51685); experiment: cell-based or functional assay
Sequence (P51685 whole entry): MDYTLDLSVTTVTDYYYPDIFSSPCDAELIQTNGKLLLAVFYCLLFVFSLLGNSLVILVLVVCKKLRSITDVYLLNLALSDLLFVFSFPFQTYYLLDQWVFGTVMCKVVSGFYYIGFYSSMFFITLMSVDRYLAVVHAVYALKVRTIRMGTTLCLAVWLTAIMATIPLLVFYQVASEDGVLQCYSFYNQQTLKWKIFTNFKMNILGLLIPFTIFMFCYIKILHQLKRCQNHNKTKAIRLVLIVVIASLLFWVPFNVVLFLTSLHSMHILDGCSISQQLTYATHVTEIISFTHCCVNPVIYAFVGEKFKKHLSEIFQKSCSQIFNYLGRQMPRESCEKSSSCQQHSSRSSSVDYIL

IC50 ratio (WT IC50/mutant IC50) | IC50 (n.d.: 10 nM or more) | Binder
0.17 |  | h10A11 IGKV4-1/IGHV3-73 T31A (antibody, name in Kabat numbering, V domains shown) VH: EVQLVESGGGLVQPGGSLKLSCAASGFAFNAYALYWVRQASGKGLEWVGRIRSKSNNYATYYADSVKDRFTISRDDSKNTAYLQMNSLKTEDTAVYYCTRARFYYSDYGYAMDYWGQGTLVTVSS VL: DIVMTQSPDSLAVSLGERATINCRSSKSLLHSNGNTYLYWYQQKPGQPPKLLIYRMSNLASGVPDRFSGSGSGTDFTLTISSLQAEDVAVYYCMQHLEYPLTFGQGTKLEIKR
0.25 |  | h10A11 IGKV4-1/IGHV3-73 D61E (antibody, name in Kabat numbering, V domains shown) VH: EVQLVESGGGLVQPGGSLKLSCAASGFAFNTYALYWVRQASGKGLEWVGRIRSKSNNYATYYAESVKDRFTISRDDSKNTAYLQMNSLKTEDTAVYYCTRARFYYSDYGYAMDYWGQGTLVTVSS VL: DIVMTQSPDSLAVSLGERATINCRSSKSLLHSNGNTYLYWYQQKPGQPPKLLIYRMSNLASGVPDRFSGSGSGTDFTLTISSLQAEDVAVYYCMQHLEYPLTFGQGTKLEIKR
0.22 |  | h10A11 IGKV4-1/IGHV3-73 S52aT (antibody, name in Kabat numbering, V domains shown) VH: EVQLVESGGGLVQPGGSLKLSCAASGFAFNTYALYWVRQASGKGLEWVGRIRTKSNNYATYYADSVKDRFTISRDDSKNTAYLQMNSLKTEDTAVYYCTRARFYYSDYGYAMDYWGQGTLVTVSS VL: DIVMTQSPDSLAVSLGERATINCRSSKSLLHSNGNTYLYWYQQKPGQPPKLLIYRMSNLASGVPDRFSGSGSGTDFTLTISSLQAEDVAVYYCMQHLEYPLTFGQGTKLEIKR
0.03 |  | h10A11 IGKV4-1/IGHV3-73 N53Q (antibody, name in Kabat numbering, V domains shown) VH: EVQLVESGGGLVQPGGSLKLSCAASGFAFNTYALYWVRQASGKGLEWVGRIRSKSQNYATYYADSVKDRFTISRDDSKNTAYLQMNSLKTEDTAVYYCTRARFYYSDYGYAMDYWGQGTLVTVSS VL: DIVMTQSPDSLAVSLGERATINCRSSKSLLHSNGNTYLYWYQQKPGQPPKLLIYRMSNLASGVPDRFSGSGSGTDFTLTISSLQAEDVAVYYCMQHLEYPLTFGQGTKLEIKR
0.53 |  | h10A11 IGKV4-1/IGHV3-73 S52cT (antibody, name in Kabat numbering, V domains shown) VH: EVQLVESGGGLVQPGGSLKLSCAASGFAFNTYALYWVRQASGKGLEWVGRIRSKTNNYATYYADSVKDRFTISRDDSKNTAYLQMNSLKTEDTAVYYCTRARFYYSDYGYAMDYWGQGTLVTVSS VL: DIVMTQSPDSLAVSLGERATINCRSSKSLLHSNGNTYLYWYQQKPGQPPKLLIYRMSNLASGVPDRFSGSGSGTDFTLTISSLQAEDVAVYYCMQHLEYPLTFGQGTKLEIKR
0.22 |  | h10A11 IGKV4-1/IGHV3-73 I51L (antibody, name in Kabat numbering, V domains shown) VH: EVQLVESGGGLVQPGGSLKLSCAASGFAFNTYALYWVRQASGKGLEWVGRLRSKSNNYATYYADSVKDRFTISRDDSKNTAYLQMNSLKTEDTAVYYCTRARFYYSDYGYAMDYWGQGTLVTVSS VL: DIVMTQSPDSLAVSLGERATINCRSSKSLLHSNGNTYLYWYQQKPGQPPKLLIYRMSNLASGVPDRFSGSGSGTDFTLTISSLQAEDVAVYYCMQHLEYPLTFGQGTKLEIKR
0.12 |  | h10A11 IGKV4-1/IGHV3-73 R50K (antibody, name in Kabat numbering, V domains shown) VH: EVQLVESGGGLVQPGGSLKLSCAASGFAFNTYALYWVRQASGKGLEWVGKIRSKSNNYATYYADSVKDRFTISRDDSKNTAYLQMNSLKTEDTAVYYCTRARFYYSDYGYAMDYWGQGTLVTVSS VL: DIVMTQSPDSLAVSLGERATINCRSSKSLLHSNGNTYLYWYQQKPGQPPKLLIYRMSNLASGVPDRFSGSGSGTDFTLTISSLQAEDVAVYYCMQHLEYPLTFGQGTKLEIKR
0.47 |  | h10A11 IGKV4-1/IGHV3-73 Y55F (antibody, name in Kabat numbering, V domains shown) VH: EVQLVESGGGLVQPGGSLKLSCAASGFAFNTYALYWVRQASGKGLEWVGRIRSKSNNFATYYADSVKDRFTISRDDSKNTAYLQMNSLKTEDTAVYYCTRARFYYSDYGYAMDYWGQGTLVTVSS VL: DIVMTQSPDSLAVSLGERATINCRSSKSLLHSNGNTYLYWYQQKPGQPPKLLIYRMSNLASGVPDRFSGSGSGTDFTLTISSLQAEDVAVYYCMQHLEYPLTFGQGTKLEIKR
0.03 |  | h10A11 IGKV4-1/IGHV3-73 Y59F (antibody, name in Kabat numbering, V domains shown) VH: EVQLVESGGGLVQPGGSLKLSCAASGFAFNTYALYWVRQASGKGLEWVGRIRSKSNNYATYFADSVKDRFTISRDDSKNTAYLQMNSLKTEDTAVYYCTRARFYYSDYGYAMDYWGQGTLVTVSS VL: DIVMTQSPDSLAVSLGERATINCRSSKSLLHSNGNTYLYWYQQKPGQPPKLLIYRMSNLASGVPDRFSGSGSGTDFTLTISSLQAEDVAVYYCMQHLEYPLTFGQGTKLEIKR
0.43 |  | h10A11 IGKV4-1/IGHV3-73 L34I (antibody, name in Kabat numbering, V domains shown) VH: EVQLVESGGGLVQPGGSLKLSCAASGFAFNTYAIYWVRQASGKGLEWVGRIRSKSNNYATYYADSVKDRFTISRDDSKNTAYLQMNSLKTEDTAVYYCTRARFYYSDYGYAMDYWGQGTLVTVSS VL: DIVMTQSPDSLAVSLGERATINCRSSKSLLHSNGNTYLYWYQQKPGQPPKLLIYRMSNLASGVPDRFSGSGSGTDFTLTISSLQAEDVAVYYCMQHLEYPLTFGQGTKLEIKR
0.55 |  | h10A11 IGKV4-1/IGHV3-73 A56V (antibody, name in Kabat numbering, V domains shown) VH: EVQLVESGGGLVQPGGSLKLSCAASGFAFNTYALYWVRQASGKGLEWVGRIRSKSNNYVTYYADSVKDRFTISRDDSKNTAYLQMNSLKTEDTAVYYCTRARFYYSDYGYAMDYWGQGTLVTVSS VL: DIVMTQSPDSLAVSLGERATINCRSSKSLLHSNGNTYLYWYQQKPGQPPKLLIYRMSNLASGVPDRFSGSGSGTDFTLTISSLQAEDVAVYYCMQHLEYPLTFGQGTKLEIKR
0.47 |  | h10A11 IGKV4-1/IGHV3-73 K52bR (antibody, name in Kabat numbering, V domains shown) VH: EVQLVESGGGLVQPGGSLKLSCAASGFAFNTYALYWVRQASGKGLEWVGRIRSRSNNYATYYADSVKDRFTISRDDSKNTAYLQMNSLKTEDTAVYYCTRARFYYSDYGYAMDYWGQGTLVTVSS VL: DIVMTQSPDSLAVSLGERATINCRSSKSLLHSNGNTYLYWYQQKPGQPPKLLIYRMSNLASGVPDRFSGSGSGTDFTLTISSLQAEDVAVYYCMQHLEYPLTFGQGTKLEIKR
0.5 |  | h10A11 IGKV4-1/IGHV3-73 Y58F (antibody, name in Kabat numbering, V domains shown) VH: EVQLVESGGGLVQPGGSLKLSCAASGFAFNTYALYWVRQASGKGLEWVGRIRSKSNNYATFYADSVKDRFTISRDDSKNTAYLQMNSLKTEDTAVYYCTRARFYYSDYGYAMDYWGQGTLVTVSS VL: DIVMTQSPDSLAVSLGERATINCRSSKSLLHSNGNTYLYWYQQKPGQPPKLLIYRMSNLASGVPDRFSGSGSGTDFTLTISSLQAEDVAVYYCMQHLEYPLTFGQGTKLEIKR
0.56 |  | h10A11 IGKV4-1/IGHV3-73 V63L (antibody, name in Kabat numbering, V domains shown) VH: EVQLVESGGGLVQPGGSLKLSCAASGFAFNTYALYWVRQASGKGLEWVGRIRSKSNNYATYYADSLKDRFTISRDDSKNTAYLQMNSLKTEDTAVYYCTRARFYYSDYGYAMDYWGQGTLVTVSS VL: DIVMTQSPDSLAVSLGERATINCRSSKSLLHSNGNTYLYWYQQKPGQPPKLLIYRMSNLASGVPDRFSGSGSGTDFTLTISSLQAEDVAVYYCMQHLEYPLTFGQGTKLEIKR
0.49 |  | h10A11 IGKV4-1/IGHV3-73 T57S (antibody, name in Kabat numbering, V domains shown) VH: EVQLVESGGGLVQPGGSLKLSCAASGFAFNTYALYWVRQASGKGLEWVGRIRSKSNNYASYYADSVKDRFTISRDDSKNTAYLQMNSLKTEDTAVYYCTRARFYYSDYGYAMDYWGQGTLVTVSS VL: DIVMTQSPDSLAVSLGERATINCRSSKSLLHSNGNTYLYWYQQKPGQPPKLLIYRMSNLASGVPDRFSGSGSGTDFTLTISSLQAEDVAVYYCMQHLEYPLTFGQGTKLEIKR
1.6 |  | h10A11 IGKV4-1/IGHV3-73 S62T (antibody, name in Kabat numbering, V domains shown) VH: EVQLVESGGGLVQPGGSLKLSCAASGFAFNTYALYWVRQASGKGLEWVGRIRSKSNNYATYYADTVKDRFTISRDDSKNTAYLQMNSLKTEDTAVYYCTRARFYYSDYGYAMDYWGQGTLVTVSS VL: DIVMTQSPDSLAVSLGERATINCRSSKSLLHSNGNTYLYWYQQKPGQPPKLLIYRMSNLASGVPDRFSGSGSGTDFTLTISSLQAEDVAVYYCMQHLEYPLTFGQGTKLEIKR
 | > 10 nM | h10A11 IGKV4-1/IGHV3-73 R52K (antibody, name in Kabat numbering, V domains shown) VH: EVQLVESGGGLVQPGGSLKLSCAASGFAFNTYALYWVRQASGKGLEWVGRIKSKSNNYATYYADSVKDRFTISRDDSKNTAYLQMNSLKTEDTAVYYCTRARFYYSDYGYAMDYWGQGTLVTVSS VL: DIVMTQSPDSLAVSLGERATINCRSSKSLLHSNGNTYLYWYQQKPGQPPKLLIYRMSNLASGVPDRFSGSGSGTDFTLTISSLQAEDVAVYYCMQHLEYPLTFGQGTKLEIKR
 | > 10 nM | h10A11 IGKV4-1/IGHV3-73 Y35F (antibody, name in Kabat numbering, V domains shown) VH: EVQLVESGGGLVQPGGSLKLSCAASGFAFNTYALFWVRQASGKGLEWVGRIRSKSNNYATYYADSVKDRFTISRDDSKNTAYLQMNSLKTEDTAVYYCTRARFYYSDYGYAMDYWGQGTLVTVSS VL: DIVMTQSPDSLAVSLGERATINCRSSKSLLHSNGNTYLYWYQQKPGQPPKLLIYRMSNLASGVPDRFSGSGSGTDFTLTISSLQAEDVAVYYCMQHLEYPLTFGQGTKLEIKR
 | > 10 nM | h10A11 IGKV4-1/IGHV3-73 A33V (antibody, name in Kabat numbering, V domains shown) VH: EVQLVESGGGLVQPGGSLKLSCAASGFAFNTYVLYWVRQASGKGLEWVGRIRSKSNNYATYYADSVKDRFTISRDDSKNTAYLQMNSLKTEDTAVYYCTRARFYYSDYGYAMDYWGQGTLVTVSS VL: DIVMTQSPDSLAVSLGERATINCRSSKSLLHSNGNTYLYWYQQKPGQPPKLLIYRMSNLASGVPDRFSGSGSGTDFTLTISSLQAEDVAVYYCMQHLEYPLTFGQGTKLEIKR
0.44 |  | h10A11 IGKV4-1/IGHV3-73 Y32F (antibody, name in Kabat numbering, V domains shown) VH: EVQLVESGGGLVQPGGSLKLSCAASGFAFNTFALYWVRQASGKGLEWVGRIRSKSNNYATYYADSVKDRFTISRDDSKNTAYLQMNSLKTEDTAVYYCTRARFYYSDYGYAMDYWGQGTLVTVSS VL: DIVMTQSPDSLAVSLGERATINCRSSKSLLHSNGNTYLYWYQQKPGQPPKLLIYRMSNLASGVPDRFSGSGSGTDFTLTISSLQAEDVAVYYCMQHLEYPLTFGQGTKLEIKR
0.67 |  | h10A11 IGKV4-1/IGHV3-73 A60V (antibody, name in Kabat numbering, V domains shown) VH: EVQLVESGGGLVQPGGSLKLSCAASGFAFNTYALYWVRQASGKGLEWVGRIRSKSNNYATYYVDSVKDRFTISRDDSKNTAYLQMNSLKTEDTAVYYCTRARFYYSDYGYAMDYWGQGTLVTVSS VL: DIVMTQSPDSLAVSLGERATINCRSSKSLLHSNGNTYLYWYQQKPGQPPKLLIYRMSNLASGVPDRFSGSGSGTDFTLTISSLQAEDVAVYYCMQHLEYPLTFGQGTKLEIKR
